These results are taken from article PMC8079276.

For this experiment, the target named is UDP-N-acetylglucosamine-peptide N-acetylglucosaminyltransferase (mouse (endogenous in MEFs)) (UniProt Q8CGY8). As to the kind of experiment: co-IP; data not shown: share of HCF1 of the MEF lysate that is enriched by immunoprecipitation of endogenous OGT.
UniProt Q8CGY8, sequence (Q8CGY8 whole entry): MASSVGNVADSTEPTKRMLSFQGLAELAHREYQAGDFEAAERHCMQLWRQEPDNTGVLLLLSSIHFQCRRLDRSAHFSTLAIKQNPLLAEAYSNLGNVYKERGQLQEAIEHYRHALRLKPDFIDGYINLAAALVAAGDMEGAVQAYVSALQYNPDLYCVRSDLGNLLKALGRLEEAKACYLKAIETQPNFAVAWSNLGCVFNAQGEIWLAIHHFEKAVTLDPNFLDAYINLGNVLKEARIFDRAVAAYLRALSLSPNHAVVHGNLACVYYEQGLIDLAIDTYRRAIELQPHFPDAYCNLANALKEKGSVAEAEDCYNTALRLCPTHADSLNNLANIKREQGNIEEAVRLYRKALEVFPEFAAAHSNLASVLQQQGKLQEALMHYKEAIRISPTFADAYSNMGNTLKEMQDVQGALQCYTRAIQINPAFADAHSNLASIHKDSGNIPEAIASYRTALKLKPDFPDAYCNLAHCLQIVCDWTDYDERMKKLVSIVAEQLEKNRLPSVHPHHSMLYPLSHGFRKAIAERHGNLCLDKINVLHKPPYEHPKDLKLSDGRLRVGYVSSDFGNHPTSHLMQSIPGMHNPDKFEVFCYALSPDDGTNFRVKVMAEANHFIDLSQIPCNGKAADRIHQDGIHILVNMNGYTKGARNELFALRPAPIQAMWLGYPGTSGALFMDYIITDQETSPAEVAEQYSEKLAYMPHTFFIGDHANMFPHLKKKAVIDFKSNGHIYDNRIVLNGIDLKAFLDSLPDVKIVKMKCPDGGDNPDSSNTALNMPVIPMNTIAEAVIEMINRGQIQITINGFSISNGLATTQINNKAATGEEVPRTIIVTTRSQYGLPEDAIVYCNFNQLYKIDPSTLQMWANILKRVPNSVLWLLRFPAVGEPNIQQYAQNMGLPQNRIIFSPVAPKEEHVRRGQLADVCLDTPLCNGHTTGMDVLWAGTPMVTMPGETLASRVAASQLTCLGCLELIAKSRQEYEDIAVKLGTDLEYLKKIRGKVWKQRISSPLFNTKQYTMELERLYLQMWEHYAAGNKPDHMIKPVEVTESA

Substance “Host cell factor 1 precursor, Q61191 1-2045” had a percent of FL HCF1 enriched by OGT immunoprecipitation of 80 to 90%.
